In paper PMC5446193 one finds kon and koff (EDTA) data, which are given here for one substance.

The target in assay [1] is TAT-Troponin. The assay can be described thus: BLI.
Assay [2] concerns the target TAT-Troponin. Kind of assay: BLI; after the dissociation phase the sensors (1000 nM analyte samples) were moved into binding buffer with 10 mM EDTA, nm shift measured for 300 s; 25°C.

The term kon denotes a measure of how fast the partners come together. Low values mean slow association, high ones fast association. For Troponin inhibitory peptide-myoglobin, the kon in assay [1] was 3700 M⁻¹ s⁻¹. Further, the koff (EDTA) in assay [2] stood at 0.018 s⁻¹.
